We go through eight molecules from PMC7954794, “Protein context shapes the specificity of SH3 domain-mediated interactions in vivo” (Nature Communications, 2021).

This experiment deals with 575 putative partners (preys) of 22 WT SH3-containing proteins. The experiment is described as follows: DHFR-PCA on solid medium, WT and SH3-deleted baits (Fig. 1B). Type of experiment: cell-based, Saccharomyces cerevisiae. On the set-up: key to Score: 0: SH3-independent; 1: SH3-dependent PPIs; 2: SH3-inhibited PPIs. The note with it: for medrep (log2 median colony size normalized to plate background, PCA score): label = prey; for SH3-dependent PPIs: number of PPIs, SH3 domain in its own protein, DHFR-PCA, Fig2D,S2F. The procedure, abridged: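 Interactions scored by DHFR protein-fragment complementation on solid medium using robotic pinning; preys (DHFR F[3] fusions) arrayed in duplicate with control borders. Baits carried C-terminal DHFR F[1,2]-FLAG tags, tested as wild type and as SH3-deleted versions carrying a flexible Gly/Ser stuffer.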

B1: YBL039C (protein, UniProt P28274 1-579, looked up)
CTP synthase 1: MKYVVVSGGVISGIGKGVLASSTGMLMKTLGLKVTSIKIDPYMNIDAGTMSPLEHGECFVLDDGGETDLDLGNYERYLGVTLTKDHNITTGKIYSHVIAKERKGDYLGKTVQIVPHLTNAIQDWIERVAKIPVDDTGMEPDVCIIELGGTVGDIESAPFVEALRQFQFKVGKENFALIHVSLVPVIHGEQKTKPTQAAIKGLRSLGLVPDMIACRCSETLDKPTIDKIAMFCHVGPEQVVNVHDVNSTYHVPLLLLEQKMIDYLHARLKLDEISLTEEEKQRGLELLSKWKATTGNFDESMETVKIALVGKYTNLKDSYLSVIKALEHSSMKCRRKLDIKWVEATDLEPEAQESNKTKFHEAWNMVSTADGILIPGGFGVRGTEGMVLAARWARENHIPFLGVCLGLQIATIEFTRSVLGRKDSHSAEFYPDIDEKNHVVVFMPEIDKETMGGSMRLGLRPTFFQNETEWSQIKKLYGDVSEVHERHRHRYEINPKMVDELENNGLIFVGKDDTGKRCEILELKNHPYYIATQYHPEYTSKVLDPSKPFLGLVAASAGILQDVIEGKYDLEAGENKFNF
For the molecule B1, the “medrep (log2 median colony size normalized to plate background, PCA score)” value was 2.2515 (bait SLA1-2, DHFR-PCA, Replicates 4 (2 for YCR009C, YDR388W)) and 2.2515 (bait SLA1-3, DHFR-PCA, Replicates 4 (2 for YCR009C, YDR388W, YIL033C)). The Score is reported as 1 (bait SLA1-2, label = prey) and 0 (bait SLA1-3, label = prey). The “Ratio (SH3-deleted/WT medrep)” value (bait SLA1-2, label = prey, only significant differences shown, PPIs completely lost have a ratio of 0.1, gained PPIs 2.5) turned out to be 0.1.

B2: CYK3 (protein, UniProt Q07533 1-885, looked up)
Cytokinesis protein 3: MATNLTSLKPPFKVKARYGWSGQTKGDLGFLEGDIMEVTRIAGSWFYGKLLRNKKCSGYFPHNFVILLEERLNSSTENGRQPSKIVESFEKSNKVVIPPVPSRYSDERPRPKKKLSSSMPNSPKKPVDSLTKARKAKSKEMVNEKNIYNTQSSRHHNNSAPNLPLASHSKPQVRNFEESMNNPLPPLPPLPDLDNMRKTDKRAPKKSYSANDLHMARSSREYNYYKDNQKFYDGFIPEKRYSLEEDSISSGLFSNSQYLNDSACSSENSFALMSDFSATSAGSFARHKYAQSFSDSLQRSQNANGCSTKINDSQEFGDSNASSRNGKMGDILRKIIIPKRNTNIYSSSVSSPKSPKAYPKLPDIQNLNLSATPDEARDWIAVKCHLNRARTLTKYDKHPRYMRALEENRDLILHPQDSIYNGLNTNEVKGNTKPGLVDVELAELNIEYIDKMTWKRCIRDGTMTLDSWAQTTFSARYSTVLEKLRGIYIFCTEMFALTDDNGTSDFSAEPQNLEKILYRKHCTPYELTWLFKKLANSLGITCEIVIGFLKTPSAINWEFKYNHCWLRILVNKEWRFIDVILGNVTNPIHEFVNNRKIKKAENSYFLMAPLEMIYTHIPPREFEQHIVPSIDQLSALYLPLVFPSFFKNELKLYKFSTALSFLEDSEIYECSLEIPNDVEVFASVVIPTDNEEASSAYRNMELALTQIKKQKAESGRRIALIKAVLPPNVNKGSLYIHSGVRGTQTSIANIHPLSMMVPLTHKGSNMKYEFVIKIPSESIQKIELYIVEPQSRYLFVGNEYSFEVIQSPSDGIVYSSDEGPNQNRKQPMAIKSPSGRVHELVKSDPHFPYGTWKGSIKIKEPGVWSALVIADSGIGWSVFAEWLCV
In the case of B2, the “SH3-dependent PPIs” value came to 0.

B3: LSB1 (protein, UniProt P53281 2-241, looked up)
LAS seventeen-binding protein …: SASLVNRSLKNIRNELEFLKESNVISGDIFELINSKLPEKWDGNQRSPQNADTEEYVEALYDFEAQQDGDLSLKTGDKIQVLEKISPDWYRGKSNNKIGIFPANYVKPAFTRSASPKSAEAASSSTVSRPSVPPPSYEPAASQYPSQQVSAPYAPPAGYMQAPPPQQQQAPLPYPPPFTNYYQQPQQQYAPPSQQAPVEAQPQQSSGASSAFKSFGSKLGNAAIFGAGSAIGSDIVNSIF
In the case of B3, the “SH3-dependent PPIs” value came out at 8.

B4: MYO3 (protein, UniProt P36006 1-1272, looked up)
Myosin-3: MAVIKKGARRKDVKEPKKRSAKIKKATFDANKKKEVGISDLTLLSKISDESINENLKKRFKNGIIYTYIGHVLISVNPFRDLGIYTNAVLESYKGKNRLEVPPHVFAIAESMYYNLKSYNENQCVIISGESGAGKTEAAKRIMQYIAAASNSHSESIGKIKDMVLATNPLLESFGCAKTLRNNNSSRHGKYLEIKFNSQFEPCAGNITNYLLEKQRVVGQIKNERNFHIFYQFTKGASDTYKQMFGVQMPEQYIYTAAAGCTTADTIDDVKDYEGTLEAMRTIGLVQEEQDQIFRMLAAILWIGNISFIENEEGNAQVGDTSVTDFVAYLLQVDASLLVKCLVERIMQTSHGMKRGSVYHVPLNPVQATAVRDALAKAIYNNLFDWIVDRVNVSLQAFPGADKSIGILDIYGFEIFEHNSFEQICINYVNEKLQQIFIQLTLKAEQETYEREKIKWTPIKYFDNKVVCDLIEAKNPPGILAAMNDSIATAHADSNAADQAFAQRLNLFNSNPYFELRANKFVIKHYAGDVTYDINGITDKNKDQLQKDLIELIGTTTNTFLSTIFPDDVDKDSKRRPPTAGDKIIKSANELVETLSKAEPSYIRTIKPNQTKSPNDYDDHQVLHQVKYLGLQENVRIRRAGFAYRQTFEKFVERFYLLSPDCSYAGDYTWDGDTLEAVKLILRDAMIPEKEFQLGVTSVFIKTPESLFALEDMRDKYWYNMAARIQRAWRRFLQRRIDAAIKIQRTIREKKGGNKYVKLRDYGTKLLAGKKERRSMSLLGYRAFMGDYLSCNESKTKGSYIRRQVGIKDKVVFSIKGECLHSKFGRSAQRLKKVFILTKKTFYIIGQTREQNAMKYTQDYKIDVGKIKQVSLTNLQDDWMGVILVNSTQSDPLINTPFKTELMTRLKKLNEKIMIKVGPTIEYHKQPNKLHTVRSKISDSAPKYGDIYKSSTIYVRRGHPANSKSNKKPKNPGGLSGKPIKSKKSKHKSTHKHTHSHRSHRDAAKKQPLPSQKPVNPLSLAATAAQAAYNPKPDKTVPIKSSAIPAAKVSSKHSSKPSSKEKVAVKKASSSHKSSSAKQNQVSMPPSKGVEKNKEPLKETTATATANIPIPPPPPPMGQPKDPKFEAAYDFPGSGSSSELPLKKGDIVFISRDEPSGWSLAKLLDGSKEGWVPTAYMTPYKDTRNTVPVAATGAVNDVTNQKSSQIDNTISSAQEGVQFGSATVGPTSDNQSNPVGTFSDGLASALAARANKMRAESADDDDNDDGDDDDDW
As to B4, the “SH3-dependent PPIs” value is 17.

B5: HSE1 (protein, UniProt P38753 2-452, looked up)
Class E vacuolar …: SSSAIKIRNALLKATDPKLRSDNWQYILDVCDLVKEDPEDNGQEVMSLIEKRLEQQDANVILRTLSLTVSLAENCGSRLRQEISSKNFTSLLYALIESHSVHITLKKAVTDVVKQLSDSFKDDPSLRAMGDLYDKIKRKAPYLVQPNVPEKHNMSTQADNSDDEELQKALKMSLFEYEKQKKLQEQEKESAEVLPQQQQQHQQQNQAPAHKIPAQTVVRRVRALYDLTTNEPDELSFRKGDVITVLEQVYRDWWKGALRGNMGIFPLNYVTPIVEPSKEEIEKEKNKEAIVFSQKTTIDQLHNSLNAASKTGNSNEVLQDPHIGDMYGSVTPLRPQVTRMLGKYAKEKEDMLSLRQVLANAERSYNQLMDRAANAHISPPVPGPALYAGMTHANNTPVMPPQRQSYQSNEYSPYPSNLPIQHPTNSANNTPQYGYDLGYSVVSQPPPGYEQ
Turning to B5, the “SH3-dependent PPIs” value is 1.

B6: LSB3 (protein)
chain: MGINNPIPRSLKSETKKAAKILASFVKPNQVFGADQVIPPDVLKRAKGLAIITILKAGFLFSGRAGSGVIVARLKDGTWSAPSAIAMAGAGAGGMVGIELTDFVFILNTQDAVKSFSEFGTITLGGNVSVSAGPLGRSAEAAASASAGGVAAVFAYSKSKGLFAGVSVEGSAIIERREANRKFYGDNCTAKMILSGRIRPPPAVDPLFRVLESRAFNYRPSNGGRGSFDDDEDDYYDDDDYYNDIPSSFSSTDASSTRPNTRSTRRRAQSGSRYTFDDDDDDDDYGTGYSRNSRLAPTNSGGSGGKLDDPSGASSYYASHRRSGTAQSRARSSRNRWADDEYDDYDDDYESGYRRGNGRDRTKDREVDDLSNRFSKSRISSASTPQTSQGRFTAPTSPSTSSPKAVALYSFAGEESGDLPFRKGDVITILKKSDSQNDWWTGRVNGREGIFPANYVELV
modifications: left off: DHFR F[3], C-terminal, kept
Turning to B6, the “SH3-dependent PPIs” value is 19.

B7: HOF1 (protein, UniProt Q05080 1-669, looked up)
Cytokinesis protein 2: MSYSYEACFWDPNDNGVNILLGHISQGIRSCDSMILFFKQRSELEKDYARRLGAITGKLDKDIGTNMDYGKLNETFNVVLSVEKARAQSHSKQSEILFRQIYTDTKAFAANLQARYTTLSGKIERLRMDKFNKKKGCEVLQKKLQDAQIRFRDLQLNENNMIGAKRVEHNKRELLKWESNSQEYKVQLDVLKQEYKASQKFWIHEWAQLSCELQEMENARISFLQSKLQQFATSSMETYILEQTKMDMLTNHLNSFTAADEISTFSKENGTGRLKHKTSKGDMNSSANWAQMSSISTTSKKTESYMDNIRKLSSQLKETENKRKLASIDKYEKPLPSPEVTMATQFRNSTPVIRNETKVVANPTLSLRSSPVQLQSNVDDSVLRQKPDKPRPIVGEEQLKPDEDSKNPDEKGLMVHKRNQSLSSPSESSSSNPTDFSHIKKRQSMESMTTSVSSMANSIDDSQRFAKSWNSSNRKRKSMSHLQVPSSASSRSDDGGRTPNSAHNLNEDDYNTRRDTSTSTILFKPPVAVRGTSRGHTHRQSMIMQDSSNPIEDALYEMERIQSSSKPGTKTGNIMDERGVVRDRGITVTLPIVTSEGFPVIEYAKAMYPLIGNEAPGLANFHKGDYLLITEIVNKDWYKGEVYDNDRIDRNHRIGLIPYNFIQLLHQGL
Regarding B7, the “SH3-dependent PPIs” value is on record as 4.

B8: FUS1 (protein, UniProt P11710 1-512, looked up)
Nuclear fusion protein FUS1: MVATIMQTTTTVLTTVAAMSTTLASNYISSQASSSTSVTTVTTIATSIRSTPSNLLFSNVAAQPKSSSASTIGLSIGLPIGIFCFGLLILLCYFYLKRNSVSISNPPMSATIPREEEYCRRTNWFSRLFWQSKCEDQNSYSNRDIEKYNDTQWTSGDNMSSKIQYKISKPIIPQHILTPKKTVKNPYAWSGKNISLDPKVNEMEEEKVVDAFLYTKPPNIVHIESSMPSYNDLPSQKTVSSKKTALKTSEKWSYESPLSRWFLRGSTYFKDYGLSKTSLKTPTGAPQLKQMKMLSRISKGYFNESDIMPDERSPILEYNNTPLDANDSVNNLGNTTPDSQITSYRNNNIDLITARPHSVIYGTTAQQTLETNFNDHHDCNKSTEKHELIIPTPSKPLKKRKKRRQSKMYQHLQHLSRSKPLPLTPNSKYNGEASVQLGKTYTVIQDYEPRLTDEIRISLGEKVKILATHTDGWCLVEKCNTQKGSIHVSVDDKRYLNEDRGIVPGDCLQEYD
Turning to B8, the “SH3-dependent PPIs” value came to 0.
